Our source for the protein production values is a protein production outcome set (Wang et al. 2014).

This series is described as follows: label from the status in PepcDB records.
Turning to “MTSPLRPEDPTRVGDYDLVARIGKGGQGVVYLGKAPDGTRVAVKVMETSWASNSRARSRFAKEIEAASKVAPFCTAALLDSDINADPPYIVSEYIEGPSLRDAVLRDGPRTGAALDRLAISTATALVAIHQAGVIHRDFKPANVLLGPDGPRVIDFGIARHSEATVTATDSIVGTPAYMAPEQVEGRELTPAVDIFAWAGVMVFAATGQSPFHDETLPAIINRVLHQPPRLDGVDERLRPLLEACLAKEPERRPTAVQVLGVLVGHDPATLPQVPVEEVLENGYTAALNEQTQIAATAALPIPIGDQAPEPAPTAVMPAAEDTPAPESRTPVSGLAALAANRPADEAPASSPPSGPLRTTSGLAALVNTGENKQPTASSPGEGPPRRSAGPGHQPLPPRSTRERKTVLSWLVAAGILIIVLAGGWFLIDTFLLSPNGQSPEATPVDGTRRDTPAQDGIDDSVPSPSAIDPDTPTSSDTGYPGGELYPSLPYDDMSQTDPMEEPHLNPTIPGEGPWHSPPAGEEAPGQPHGGGAEEGGSEGGEQPGTGGPGGSGEGGAGVGRVAVSPAAP”, the protein production entry is reported as “failed”.
On to “MLTGIGAIVFDLDGTLYQSESLGGQIAACADRYLADLLSVSPEEAGEIVRRVRRELTARFGREASLSDACRELGGDLRELHRRFAAEVAPEPHLRRDSRVVQLLRTLGANRELYLYTNNNRALSGRIMDAIGVTGLFRRVVTIEDSWRPKPDLQALEALFAALGRKPSECLFVGDRYDIDLRLPAELGCSVYLSRTVDELLGLTLPLSEEQQ”, for which the protein production result is “failed”.
The same measure for “TYIDGSIKRKHLVQNNQPVTLYWLRFQKSIVDTNKQDLQQSLQINTGQEPKTQALAQQILKQSDADPARYVKNILDWYRQQDFIYTLSPEQLNGNRTDQFLFQTRNGFCEHYASSFVLLMRYAGIPARVVIGYQGGQLAPDAQSLEVRQLDAHAWAEVLIDDSWHRIDPTAAIAPARLEHGMQYYLQEDRRIWGSEQHLFWKQQNFHLIQSFRVWSDYLQYQWQSKVIGYNVDQQKSFFSKLGIRSVYSAIVIMLLSICGLVIVYGIYVAYKRRGQSSFIEYQISRFQRKMSPSMKKQKSETFKVW”: “failed”; for “PPAAVGPWDDILAPLYRYTRARARELAETRETMQSMLAAAQALPDGVVTLNEDFQIDWANRMARRHLGLRLPADRGHNLLNLLRAPEFVAYAHRGHWPEPILVRLSLNGQERVMMIHLAGYAS”: “failed”; for “MLKLAQAEEAEAKRGKLKIFLGYAAGVGKTYAMLQAARERRHEGRDVVAAYVESHGRPETDALLEGLEILPAARIEYQGVMLPELDIDGVLARRPQLALVDELAHTNAPGSRHEKRWQDVEELLAAGIDVFTTVNVQHFESLNDVVAQITGIAVRETVPDRLLDLAAEIRLVDIPPEDLLQRLREGKVYVPEQAAFAAEKFFRAGNLIALRELSLRRAAVRVDEEMRAYMEARAIPGPWPAAERLLVSISGSPFSERLIRTTRRLADELKAPWFTVYVETPGNGRHEQENRKRVWKDLRLAESLGAQVATVTATSVAEALIDYARRHNVTRIVVGKPAKPRWREFLRLPLVDRIIRLSGAIDVHVVSYEPAEAGKGPVLPVRRGPISFSGYLASLALVVAASLACLLLRPFLAPTNMVMIYLLAVVLAALRLGLKPAILTAFLGVLAFDFFFIPPHLTFAVADTQYLITFVALFTVGVVISTLVSTVRERAEAVREREEQTASLYYLSRDLAAAADIETLVAAVIRNIGETLFARAAVLLPEGDRLRVAAASKGLKPDVKEMAVADWAFRNRQTAGQGTETLASAGFLYLPLQTSGSVLGVLGVRLKNDADYRSTQVRRMLDAFTSQTAMALERVQLSRQAEQAQILQARENLERALLNSISHDLRTPLVAITGALDTLRDKVHTLADESRLELLDTAWEEAERLNRFVGNLLDMTRLESGAIKLKRELSDVQDLIGCALAALERRIGERGIDVRLAPDLPLVRIDMVLMTQVLVNLLDNALKYSPPDSGVEITARVDGGRLRIEMADRGPGIPEQDLKRVFDKFYRIAVPEGAQGTGLGLSICKGIVEAHGGSIRAENRTGGGLRVIVTLPLAGGAKEGVSHGP”: “failed”.
The same measure for “MPSDNTYIRFRQQQRDPLHVNSPVSAGNISGVQGSGSRHPPSPPTPTTQPSVNHSDAQAERLNNLTLDELLDSPGRAGLTRLDPKRPLATLWFDDDSTVAATVRSIFERDFKEPHANWSQTSKATIDRWYETFAQVYNWDRSINKRVRVEFEAKLNSRMSDQVSRWKGNWKEKGDEAKPKWIDPEGIYKHCSGQTSYKARARKRCEKTGETTPDFLELLDETHRKADGTFIDGKSEEIYKKVTSRIEEEESHMCSGDNPESTGSCGLSVHAKNKIFVEVAPRKKGRIYGVGSLQFEAFSAHSGSTLPSDDPVILSQKLAAAEACIQSQAEKINSFDILFDYLADKDPALAAILRRGSSTQTGPASANEAPVATAPEQQVANEETAAATLANLATGSSPSSIF”: “failed”; for “LLHGDFELAVPGGPVAAYYAAPAGREQLPIVLVVQEIFGLHEHIKDVCRRLAHDGYLAVSVNLYQRQGDASRYDNIPGLVAELVSKVPDEQVHADLDASLAWAAAHGGDGARVGVTGFCWGGRTTWMYAARNPAVKAGVAWYGRLSSGHGPLIKQVPLDVAGSLHAPVLGLYGGKDESIPLDDVRAMEARLQQGGAPAQASRIVVYPQAGHAFLADYRPSYRAADAQDGWRRMLDWFALYL”: “not failed”.
Turning to “SGKVILITGASRGIGLQLVKTVIEEDDECIVYGVARTEAGLQSLQREYGADKFVYRVLDITDRSRMEALVEEIRQKHGKLDGIVANAGMLEPVKSISQSNSEHDIKQWERLFDVNFFSIVSLVALCLPLLKSSPFVGNIVFVSSGASVKPYNGWSAYGCSKAALNHFAMDIASEEPSDKVRAVCIAPGVVDTQMQKDIRETLGPQGMTPKALERFTQLYKTSSLLDPKVPAAVLAQLVLKGIPDSLNGQYLRYNDERLGPVQG”, the protein production entry is recorded as “not failed”.
As for “MAEVHVIGQIMGASGFSESSLFCKWGIHTGAAWKLLSGVREGQTQVDTPQIGDMAYWSHPIDLHFATKGLQGWPRLHFQVWSQDSFGRCQLAGYGFCHVPSSPGTHQLACPTWRPLGSWREQLARAFVGGGPQLLHGDTIYSGADRYRLHTAAGGTVHLEIGLLLRNFDRYGVEC”, the protein production entry is recorded as “failed”.
For the sequence “MGLFELNLAIILFIIGNFIGLEYSYRKYSSPYVEKGIDKFALAISVFGGILINSPLYMLGCLLIGFPLGMRPGYGRVEFVVGLAVALFLYFLRW”, the protein production entry was “failed”.
The same measure for “MKRLPLLAALPLLCASALSAQPLMSVGYFNGGGDVTAGPGGDIDKLDVRQITHLNYSFGLIYNDEKDETNAALKDPAHLHEIWLSPKVQADLQKLPALRKQNPDLKVLLSVGGWGARGFSGAAATAESRAVFIRSAQKIIQQYGLDGIDLDWEFPVNGAWGLVASQPADRDNFTALLKSLREAVGEQKLVTIAVGANAESPKSWVDVKAVAPVLNYINLMTYDMAYGTQYFNSNLYDSSHWPTVAAADKYSADFVVNNYLAAGLKPSQMNLGIGFYGRVPKRAVEPGIDWTKADAQNNPVTQPYFGPQQIALFASLGYDLSKDTYVKYNDIVGKLLNDPQKRFTEHWDDEAKVPWLSVQSAEGKPLFALSYENPRSVAIKADYIKAKGLAGAMFWEYGADDQNQLARQLAESLGIKH”: “not failed”; for “MGSSHHHHHHSSGRENLYFQGSQRPVDRNPPRINLMPTGANRVAMRNRGNNEADAALQALAQNGINMEDLRAALEAYIVWLRPIPLDIANALEGVGITPRFDNPEEAKVDNPLMNLSSALKRRLDA”: “not failed”.
